In patent publication US10064926B2, “Peptides and combination of peptides for use in immunotherapy against hepatocellular carcinoma (HCC) and other cancers” (Immatics biotechnologies GmbH, priority 2014, dated 2018):

Biological target: HLA-A*02 (Homo sapiens, UniProt P04439, D140Y/D185E/D98H/E176V/E277Q/G131W/G231S/I119V/I121R/I166T/I218V/N151K/N90K/P208A/P217A/Q86G/Q94H/R138H/R169H)
Experiment: UV-ligand exchange / peptide binding to MHC class I (beta2m ELISA)
Details: peptide exchange yield
Excerpt: Candidate peptides for T cell based therapies according to the present invention were further tested for their MHC binding capacity (affinity). The individual peptide-MHC complexes were produced by UV-ligand exchange, where a UV-sensitive peptide is cleaved upon UV-irradiation, and exchanged with the peptide of interest as analyzed. Only peptide candidates that can effectively bind and stabilize the peptide-receptive MHC molecules prevent dissociation of the MHC complexes. To determine the yield of the exchange reaction, an ELISA was performed based on the detection of the light chain (β2m) of stabilized MHC complexes. The assay was performed as generally described in Rodenko et al. (Rodenko B, Toebes M, Hadrup S R, van Esch W J, Molenaar A M, Schumacher T N, Ovaa H. Generation of peptide-MHC class I complexes through UV-mediated ligand exchange. Nat Protoc. 2006; 1(3):1120-32).
96 well MAXISorp plates (NUNC) were coated over night with 2 ug/ml streptavidin in PBS at room temperature, washed 4× and blocked for 1 h at 37° C. in 2% BSA containing blocking buffer. Refolded HLA-A*0201/MLA-001 monomers served as standards, covering the range of 15-500 ng/ml. Peptide-MHC monomers of the UV-exchange reaction were diluted 100 fold in blocking buffer. Samples were incubated for 1 h at 37° C., washed four times, incubated with 2 ug/ml HRP conjugated anti-β2m for 1 h at 37° C., washed again and detected with TMB solution that is stopped with […]. Absorption was measured at 450 nm. Candidate peptides that show a high exchange yield (preferably higher than 50%, most preferred higher than 75%) are generally preferred for a generation and production of antibodies or fragments thereof, and/or T cell receptors or fragments thereof, as they show sufficient avidity to the MHC molecules and prevent dissociation of the MHC complexes.

[1] = Table 10A, UV-ligand exchange, β2m ELISA

| Peptide exchange (MHC class I binding score) (Table 10B, HLA-A*02 peptides) | Peptide exchange (MHC class I binding score) [1] | Substance |
| --- | --- | --- |
| “+++” (≥50 = +++) |  | 3 (ILDDNMQKL; listed as Homo sapiens) [compound 3] |
| “++++” (≥75% = ++++) | ++++ (>=75% = ++++) | 5 (ALVEQGFTV; listed as Homo sapiens) [compound 5] |
| “+++” (≥50 = +++) | +++ (50%-75% = +++) | 8 (KLLEEATISV; listed as Homo sapiens) [compound 8] |
| “+++” (≥50 = +++) |  | 9 (ALANQKLYSV; listed as Homo sapiens) [compound 9] |
| “++++” (≥75% = ++++) | ++++ (>=75% = ++++) | 13 (GLIDTETAMKAV; listed as Homo sapiens) [compound 13] |
| “+++” (≥50 = +++) |  | 17 (RVASPTSGV; listed as Homo sapiens) [compound 17] |
| “+++” (≥50 = +++) |  | 18 (ALYGKTEVV; listed as Homo sapiens) [compound 18] |
| “+++” (≥50 = +++) |  | 19 (FLEETKATV; listed as Homo sapiens) [compound 19] |
| “++++” (≥75% = ++++) |  | 20 (KLSNVLQQV; listed as Homo sapiens) [compound 20] |
| “++++” (≥75% = ++++) |  | 21 (QLIEVSSPITL; listed as Homo sapiens) [compound 21] |
| “++++” (≥75% = ++++) |  | 22 (RIAGIRGIQGV; listed as Homo sapiens) [compound 22] |
| “+++” (≥50 = +++) |  | 23 (RLYDPASGTISL; listed as Homo sapiens) [compound 23] |
| “+++” (≥50 = +++) |  | 24 (SLAEEKLQASV; listed as Homo sapiens) [compound 24] |
| “+++” (≥50 = +++) |  | 25 (SLDGKAALTEL; listed as Homo sapiens) [compound 25] |
| “+++” (≥50 = +++) |  | 26 (SLLHTIYEV; listed as Homo sapiens) [compound 26] |
| “++++” (≥75% = ++++) |  | 27 (TLPDFRLPEI; listed as Homo sapiens) [compound 27] |
| “+++” (≥50 = +++) |  | 28 (TLQDHLNSL; listed as Homo sapiens) [compound 28] |
| “+++” (≥50 = +++) |  | 29 (YIQDEINTI; listed as Homo sapiens) [compound 29] |
| “+++” (≥50 = +++) |  | 30 (YLGEGPRMV; listed as Homo sapiens) [compound 30] |
| “+++” (≥50 = +++) |  | 31 (YQMDIQQEL; listed as Homo sapiens) [compound 31] |
| “++++” (≥75% = ++++) |  | 32 (ALNAVRLLV; listed as Homo sapiens) [compound 32] |
| “+++” (≥50 = +++) |  | 33 (LLHGHIVEL; listed as Homo sapiens) [compound 33] |

| Peptide exchange (MHC class I binding score) (Table 10B, HLA-A*02 peptides) | Peptide exchange (MHC class I binding score) [1] | Substance |
| --- | --- | --- |
| “+++” (≥50 = +++) |  | 34 (SLAEGTATV; listed as Homo sapiens) [compound 34] |
| “+++” (≥50 = +++) |  | 35 (SLQESILAQV; listed as Homo sapiens) [compound 35] |
| “+++” (≥50 = +++) |  | 36 (ILNVDGLIGV; listed as Homo sapiens) [compound 36] |
| “+++” (≥50 = +++) |  | 37 (LLLPLLPPLSP; listed as Homo sapiens) [compound 37] |
| “+++” (≥50 = +++) |  | 38 (ALADVVHEA; listed as Homo sapiens) [compound 38] |
| “+++” (≥50 = +++) |  | 39 (ALDPKANFST; listed as Homo sapiens) [compound 39] |
| “+++” (≥50 = +++) |  | 40 (ALLAEGITWV; listed as Homo sapiens) [compound 40] |
| “++++” (≥75% = ++++) |  | 41 (ALLELDEPLVL; listed as Homo sapiens) [compound 41] |
| “+++” (≥50 = +++) |  | 42 (ALLGGNVRMML; listed as Homo sapiens) [compound 42] |
| “++++” (≥75% = ++++) |  | 44 (ALQDAIRQL; listed as Homo sapiens) [compound 44] |
| “++++” (≥75% = ++++) |  | 45 (ALQDQLVLV; listed as Homo sapiens) [compound 45] |
| “+++” (≥50 = +++) |  | 46 (AMAEMKVVL; listed as Homo sapiens) [compound 46] |
| “++” (≥20% = ++) |  | 47 (FLDTPIAKV; listed as Homo sapiens) [compound 47] |
| “+++” (≥50 = +++) |  | 48 (FLLEQPEIQV; listed as Homo sapiens) [compound 48] |
| “++” (≥20% = ++) |  | 49 (FLYPEKDEPT; listed as Homo sapiens) [compound 49] |
| “++” (≥20% = ++) |  | 50 (FTIPKLYQL; listed as Homo sapiens) [compound 50] |
| “++” (≥20% = ++) |  | 51 (GLAEELVRA; listed as Homo sapiens) [compound 51] |
| “+++” (≥50 = +++) |  | 52 (GLFNAELLEA; listed as Homo sapiens) [compound 52] |
| “+++” (≥50 = +++) |  | 53 (GLIHLEGDTV; listed as Homo sapiens) [compound 53] |
| “+++” (≥50 = +++) |  | 54 (GLLDPNVKSIFV; listed as Homo sapiens) [compound 54] |
| “+++” (≥50 = +++) |  | 55 (GLYGRTIEL; listed as Homo sapiens) [compound 55] |
| “+++” (≥50 = +++) |  | 56 (GVLPGLVGV; listed as Homo sapiens) [compound 56] |

| Peptide exchange (MHC class I binding score) (Table 10B, HLA-A*02 peptides) | Peptide exchange (MHC class I binding score) [1] | Substance |
| --- | --- | --- |
| “+++” (≥50 = +++) |  | 57 (HLTEAIQYV; listed as Homo sapiens) [compound 57] |
| “++++” (≥75% = ++++) |  | 58 (ILADLNLSV; listed as Homo sapiens) [compound 58] |
| “+++” (≥50 = +++) |  | 59 (ILADTFIGV; listed as Homo sapiens) [compound 59] |
| “++++” (≥75% = ++++) |  | 60 (ILSPLSVAL; listed as Homo sapiens) [compound 60] |
| “++++” (≥75% = ++++) |  | 61 (KIADFELPTI; listed as Homo sapiens) [compound 61] |
| “++” (≥20% = ++) |  | 62 (KIAGTNAEV; listed as Homo sapiens) [compound 62] |
| “+++” (≥50 = +++) |  | 63 (KIDEKNFVV; listed as Homo sapiens) [compound 63] |
| “+++” (≥50 = +++) |  | 64 (KILEETLYV; listed as Homo sapiens) [compound 64] |
| “+++” (≥50 = +++) |  | 65 (KLFSGDELLEV; listed as Homo sapiens) [compound 65] |
| “+++” (≥50 = +++) |  | 66 (KLHEEIDRV; listed as Homo sapiens) [compound 66] |
| “+++” (≥50 = +++) |  | 67 (KLKETIQKL; listed as Homo sapiens) [compound 67] |
| “++” (≥20% = ++) |  | 68 (KLLAATVLLL; listed as Homo sapiens) [compound 68] |
| “++++” (≥75% = ++++) |  | 69 (KLLDEVTYLEA; listed as Homo sapiens) [compound 69] |
| “++++” (≥75% = ++++) |  | 70 (KLLDLETERILL; listed as Homo sapiens) [compound 70] |
| “++++” (≥75% = ++++) |  | 71 (KLLDNWDSV; listed as Homo sapiens) [compound 71] |
| “+++” (≥50 = +++) |  | 72 (KLSEAVTSV; listed as Homo sapiens) [compound 72] |
| “+++” (≥50 = +++) |  | 74 (KLYDLELIV; listed as Homo sapiens) [compound 74] |
| “++” (≥20% = ++) |  | 75 (KQMEPLHAV; listed as Homo sapiens) [compound 75] |
| “+++” (≥50 = +++) |  | 76 (LLADIGGDPFAA; listed as Homo sapiens) [compound 76] |
| “+++” (≥50 = +++) |  | 77 (LLHEENFSV; listed as Homo sapiens) [compound 77] |
